Paper doi:10.1101/684738

Target: E. coli RNAP core enzyme (E. coli)
Test: single-molecule fluorescence colocalisation

percent of Cy3-RNA signal colocalized with Cy5 on σ^70: 35%
percent of initially-stalled transcription complexes retaining σ: 75%
Substance: Cy5-labeled E. coli σ^70 factor (from UniProt P00579 1-613) (natural protein)
